Ends that are not written are not given here.
B1: Peptide-34 (peptide)
peptide: MNWCPKDIWYLCFN
modifications: cysteine pairing not given here; also: biotinylated, site not given here
notes: Synthetic biotinylated peptide loaded on streptavidin biosensors
B2: Peptide-36 (peptide)
peptide: MDWCPLYLWNECFN
modifications: cysteine pairing not given here; also: biotinylated, site not given here
notes: as for B1
B3: Peptide-38 (peptide)
peptide: MDWCPRDLWHECFA
modifications: cysteine pairing not given here; also: biotinylated, site not given here
notes: as for B1
B4: Peptide-37 (peptide)
peptide: MDWCPRDLWDLCFA
modifications: cysteine pairing not given here; also: biotinylated, site not given here
notes: as for B1
B5: Peptide-35 (peptide)
peptide: MDWCPLHMWHECFS
modifications: cysteine pairing not given here; also: biotinylated, site not given here
notes: as for B1
B6: Peptide-32 (peptide)
peptide: MDWCPIHLWHVCFN
modifications: cysteine pairing not given here; also: biotinylated, site not given here
notes: as for B1
B7: Peptide-31 (peptide)
peptide: MDWCPIDLWNECFF
modifications: cysteine pairing not given here; also: biotinylated, site not given here
notes: as for B1
B8: Peptide-33 (peptide)
peptide: MDWCPIYLWSECFN
modifications: cysteine pairing not given here; also: biotinylated, site not given here
notes: as for B1

Target: Anti-CD28 scFv (VH-linker 1-VL)
Test: phage ELISA: biotinylated anti-CD28 scFv on neutravidin plate, clonal phage supernatant, anti-M13-HRP; wells pre-incubated with soluble CD28 (competitor);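 as to Phage binding ELISA CD28 scFv signal in presence of CD28: wells pretreated with soluble CD28 protein in blocking buffer before phage addition, no wash in between, reference wells got blocking buffer only, bound phage detected after washing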

Binder	Phage binding ELISA CD28 scFv signal in presence of CD28
MDWCPRARWHDCFF (Clonal phage from the Peptide-9 library) [Phage-445]	0.138
MDWCPRFWWHECYA (Clonal phage from the Peptide-9 library) [Phage-451]	0.503
MDWCPRDRWDVCFA (Clonal phage from the Peptide-9 library) [Phage-439]	0.096
MVDCPLISFDECLA (Clonal phage from the Peptide-9 library) [Phage-449]	0.076
IDWCPIIQGLPCFA (Clonal phage from the Peptide-9 library) [Phage-432]	0.065
MAWCPWAQFDECLA (Clonal phage from the Peptide-9 library) [Phage-433]	0.078
MAWCPWASFDECLA (Clonal phage from the Peptide-9 library) [Phage-448]	0.109
MDWCPMSRWAFCFD (Clonal phage from the Peptide-9 library) [Phage-438]	0.115
MAWCPADQWHECFN (Clonal phage from the Peptide-9 library) [Phage-431]	0.456
EDWCPTDVWPYCFS (Clonal phage from the Peptide-9 library) [Phage-450]	0.157
MDWCPRDRWADCFN (Clonal phage from the Peptide-9 library) [Phage-436]	0.08
MDWCPRDRWDDCFN (Clonal phage from the Peptide-9 library) [Phage-446]	0.077
MDWCPRDRWVDCFN (Clonal phage from the Peptide-9 library) [Phage-440]	0.132
MDWCPVDRWADCFN (Clonal phage from the Peptide-9 library) [Phage-437]	0.315
MDWCPRDRWDDCFF (Clonal phage from the Peptide-9 library) [Phage-441]	0.183
MDWCPMTRWNDCYF (Clonal phage from the Peptide-9 library) [Phage-443]	0.078
MDWCPRDRWDVCYY (Clonal phage from the Peptide-9 library) [Phage-447]	0.073
MFLCPSAMWNRCFY (Clonal phage from the Peptide-9 library) [Phage-426]	0.114
MNWCPSTMWNRCLT (Clonal phage from the Peptide-9 library) [Phage-428]	0.07
INLCPTPMWNRCWL (Clonal phage from the Peptide-9 library) [Phage-423]	0.101
VILCPTTMWNRCFH (Clonal phage from the Peptide-9 library) [Phage-427]	0.084
IVWCPTTQWNRCAT (Clonal phage from the Peptide-9 library) [Phage-434]	0.083
IYWCPIDRWNDCYN (Clonal phage from the Peptide-9 library) [Phage-442]	0.164
MDLCPTAMWNRCFY (Clonal phage from the Peptide-9 library) [Phage-425]	0.084
ITQCPSTMWNRCSV (Clonal phage from the Peptide-9 library) [Phage-424]	0.108
MDWCPRDWWHMCFN (Clonal phage from the Peptide-9 library) [Phage-452]	0.243
MDWCPRDRWVDCYA (Clonal phage from the Peptide-9 library) [Phage-435]	0.403
MDWCPSDYWYVCFA (Clonal phage from the Peptide-9 library) [Phage-453]	0.08

Target: T1, Ab-12, anti-PD-L1xCD28 non-masked antibody in Vh format
T1 construct: also called PDL1xCD28 non-masked (Vh)
Test: competition ELISA: peptide titrated against 5 nM Ab-12; binding of Ab-12 to captured biotinylated CD28 antigen is read

Binder	IC50 [nM]
B1	1410
B2	400
B3	350
B4	1110
B5	1270
B6	970
B7	1770
B8	160

Target: Anti-CD28 scFv (VH-linker 1-VL)
Test: phage ELISA: biotinylated anti-CD28 scFv on neutravidin plate, clonal phage supernatant, anti-M13-HRP;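 also: before phage addition, wells were preincubated either with soluble CD28 protein in blocking buffer or with blocking buffer only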

Binder	Phage binding ELISA CD28 scFv signal
MDWCPRARWHDCFF (Clonal phage from the Peptide-9 library) [Phage-445]	0.497
MDWCPRFWWHECYA (Clonal phage from the Peptide-9 library) [Phage-451]	2.4
MDWCPRDRWDVCFA (Clonal phage from the Peptide-9 library) [Phage-439]	0.924
MVDCPLISFDECLA (Clonal phage from the Peptide-9 library) [Phage-449]	0.07
IDWCPIIQGLPCFA (Clonal phage from the Peptide-9 library) [Phage-432]	0.368
MAWCPWAQFDECLA (Clonal phage from the Peptide-9 library) [Phage-433]	0.071
MAWCPWASFDECLA (Clonal phage from the Peptide-9 library) [Phage-448]	0.089
MDWCPMSRWAFCFD (Clonal phage from the Peptide-9 library) [Phage-438]	1
MAWCPADQWHECFN (Clonal phage from the Peptide-9 library) [Phage-431]	1.84
EDWCPTDVWPYCFS (Clonal phage from the Peptide-9 library) [Phage-450]	0.711
MDWCPRDRWADCFN (Clonal phage from the Peptide-9 library) [Phage-436]	1.35
MDWCPRDRWDDCFN (Clonal phage from the Peptide-9 library) [Phage-446]	0.45
MDWCPRDRWVDCFN (Clonal phage from the Peptide-9 library) [Phage-440]	0.911
MDWCPVDRWADCFN (Clonal phage from the Peptide-9 library) [Phage-437]	1.16
MDWCPRDRWDDCFF (Clonal phage from the Peptide-9 library) [Phage-441]	0.899
MDWCPMTRWNDCYF (Clonal phage from the Peptide-9 library) [Phage-443]	0.671
MDWCPRDRWDVCYY (Clonal phage from the Peptide-9 library) [Phage-447]	0.074
MFLCPSAMWNRCFY (Clonal phage from the Peptide-9 library) [Phage-426]	0.094
MNWCPSTMWNRCLT (Clonal phage from the Peptide-9 library) [Phage-428]	0.065
INLCPTPMWNRCWL (Clonal phage from the Peptide-9 library) [Phage-423]	0.103
VILCPTTMWNRCFH (Clonal phage from the Peptide-9 library) [Phage-427]	0.072
IVWCPTTQWNRCAT (Clonal phage from the Peptide-9 library) [Phage-434]	0.067
IYWCPIDRWNDCYN (Clonal phage from the Peptide-9 library) [Phage-442]	0.867
MDLCPTAMWNRCFY (Clonal phage from the Peptide-9 library) [Phage-425]	0.097
ITQCPSTMWNRCSV (Clonal phage from the Peptide-9 library) [Phage-424]	0.098
MDWCPRDWWHMCFN (Clonal phage from the Peptide-9 library) [Phage-452]	2.12
MDWCPRDRWVDCYA (Clonal phage from the Peptide-9 library) [Phage-435]	1.48
MDWCPSDYWYVCFA (Clonal phage from the Peptide-9 library) [Phage-453]	0.707
